The supplement of paper PMC10201428
± gives the standard deviation of the averaged measurements.

Legend:
[1] = tested on: VchCAST RNA-guided transposition machinery (E. coli BL21(DE3) host, lacZ target); test: relative integration efficiency (T-RL orientation) vs wild-type transposon end (log2 (normalized fold change)); transposon end mutated: right end (5 bp flank + 75 bp right end); higher = more efficient transposition
How it was run: (§1)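 Co-transformation of E. coli BL21(DE3) combined a pUC57 mini-transposon donor, holding barcoded pools of 1549 left-end or 1849 right-end variants, with a T7-driven plasmid encoding a CRISPR array, tniQ-cas8-cas7-cas6 and tnsA-tnsB-tnsC. After plating with 0.1 mM IPTG at 37°C for 18 h, input plasmids and genomic integration junctions were PCR-amplified and Illumina-sequenced across two biological output replicates, with four reference barcodes. Relative integration efficiency is the normalised, log-transformed output/input barcode fold change.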

[2] = tested on: VchCAST RNA-guided transposition machinery (E. coli BL21(DE3) host, lacZ target); test: relative integration efficiency (T-LR orientation) vs wild-type transposon end (log2 (normalized fold change)); transposon end mutated: right end (5 bp flank + 75 bp right end); higher = more efficient transposition
How it was run: as §1

Sequence | relative integration efficiency (log2) [1] | relative integration efficiency (log2) [2]
ACATTTGTTGATACAACCATATATTGATATCTCCAACCATAAAGTGATATTTATCACACCCATAAATTGATATTGCCTCTGATCATAGTCAGACCAACATTGCTACGACCCGTATTCGCACCGACAC | -0.42 ± 0.096 | -0.302 ± 0.25
ACATTTGTTGATACAACCATATATTGATATCTCCAACCATAAAGTGATATTTATCAGTGGGTATTTAACTATAACGCTCTGATCATAGTCAGACCAACATTGCTACGACCCGTATTCGCACCGACAC | -0.927 ± 0.29 | 2.59 ± 0.059
ACATTTGTTGATACAACCATATATTGATATCTCCAACCATAAGTTGATATTTTTCACAACCATAAAATGATAATTACTCTGATCATAGTCAGACCAACATTGCTACGACCCGTATTCGCACCGACAC | -0.279 ± 0.084 | -0.448 ± 0.2
ACATTTGTTGATACAACCATATATTGATATCTCCAACCATAAGTTGATATTTTTCACAACCATAAAGTGATATTTACTCTGATCATAGTCAGACCAACATTGCTACGACCCGTATTCGCACCGACAC | -0.225 ± 0.017 | -0.0291 ± 0.26
ACATTTGTTGATACAACCATATATTGATATCTCCAACCATAAGTTGATATTTTTCACAACCATAAGTTGATATTTTCTCTGATCATAGTCAGACCAACATTGCTACGACCCGTATTCGCACCGACAC | -0.0557 ± 0.027 | -0.31 ± 0.26
ACATTTGTTGATACAACCATATATTGATATCTCCAACCATAAGTTGATATTTTTCACAACCATATATTGATATCTCCTCTGATCATAGTCAGACCAACATTGCTACGACCCGTATTCGCACCGACAC | -0.17 ± 0.037 | 0.0875 ± 0.82
ACATTTGTTGATACAACCATATATTGATATCTCCAACCATAAGTTGATATTTTTCACACCCATAAATTGATAATTACTCTGATCATAGTCAGACCAACATTGCTACGACCCGTATTCGCACCGACAC | -0.491 ± 0.17 | 0.109 ± 0.44
ACATTTGTTGATACAACCATATATTGATATCTCCAACCATAAGTTGATATTTTTCACACCCATAAATTGATATTGCCTCTGATCATAGTCAGACCAACATTGCTACGACCCGTATTCGCACCGACAC | -0.335 ± 0.081 | -0.216 ± 0.018
ACATTTGTTGATACAACCATATATTGATATCTCCAACCATAAGTTGATATTTTTCAGTGGGTATTTAACTATAACGCTCTGATCATAGTCAGACCAACATTGCTACGACCCGTATTCGCACCGACAC | -0.859 ± 0.26 | 2.468 ± 0.015
ACATTTGTTGATACAACCATATATTGATATCTCCAACCATATATTGATATCTCTCACAACCATAAAATGATAATTACTCTGATCATAGTCAGACCAACATTGCTACGACCCGTATTCGCACCGACAC | -0.562 ± 0.043 | -0.08 ± 0.5
ACATTTGTTGATACAACCATATATTGATATCTCCAACCATATATTGATATCTCTCACAACCATAAAGTGATATTTACTCTGATCATAGTCAGACCAACATTGCTACGACCCGTATTCGCACCGACAC | -0.452 ± 0.1 | 0.0811 ± 0.2
ACATTTGTTGATACAACCATATATTGATATCTCCAACCATATATTGATATCTCTCACAACCATAAGTTGATATTTTCTCTGATCATAGTCAGACCAACATTGCTACGACCCGTATTCGCACCGACAC | -0.571 ± 0.19 | -0.0341 ± 0.43
ACATTTGTTGATACAACCATATATTGATATCTCCAACCATATATTGATATCTCTCACAACCATATATTGATATCTCCTCTGATCATAGTCAGACCAACATTGCTACGACCCGTATTCGCACCGACAC | -0.859 ± 0.14 | -0.402 ± 0.094
ACATTTGTTGATACAACCATATATTGATATCTCCAACCATATATTGATATCTCTCACACCCATAAATTGATAATTACTCTGATCATAGTCAGACCAACATTGCTACGACCCGTATTCGCACCGACAC | -0.357 ± 0.067 | 0.23 ± 0.045
